The values that follow come from article PMC8843743, “Targeting a proteolytic neoepitope on CUB domain containing protein 1 (CDCP1) for RAS-driven cancers” (The Journal of Clinical Investigation, 2022).

In this assay the target is T1, NTF of recombinant c-CDCP1 cut 3 (human, UniProt Q9H5V8 30-369).
T1 construct: CUB domain containing protein 1 (CDCP1), human; NTF with the native cut site 3 (proteolysis after K369); NTF (aa 30-369); The NTF alone was also made as NTF-Fc; also called NTF (cut 3); NTF (aa 30-369); source: BirA-Expi293, cotransfected with the CTF plasmid, purified (protein A or Ni-NTA)
T1 sequence (looked up): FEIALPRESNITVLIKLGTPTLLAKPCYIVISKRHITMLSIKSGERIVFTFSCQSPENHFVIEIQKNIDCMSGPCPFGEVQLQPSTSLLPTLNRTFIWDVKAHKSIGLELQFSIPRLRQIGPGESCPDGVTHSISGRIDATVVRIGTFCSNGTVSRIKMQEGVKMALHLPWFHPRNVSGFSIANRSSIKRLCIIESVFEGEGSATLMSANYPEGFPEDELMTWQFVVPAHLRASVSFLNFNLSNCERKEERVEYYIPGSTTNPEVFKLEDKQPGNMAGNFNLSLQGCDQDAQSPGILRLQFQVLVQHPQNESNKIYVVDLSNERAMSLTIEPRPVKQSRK
In words: co-purification after co-expression; NTF and CTF ectodomain on separate plasmids cotransfected in BirA-Expi293; protein A or Ni-NTA affinity chromatography; SDS-PAGE. The conditions noted are these: partners not purified.

B1: CTF ectodomain of recombinant c-CDCP1 cut 3 (domain or fragment, human, UniProt Q9H5V8 370-665, looked up)
chain: FVPGCFVCLESRTCSSNLTLTSGSKHKISFLCDDLTRLWMNVEKTISCTDHRYCQRKSYSLQVPSDILHLPVELHDFSWKLLVPKDRLSLVLVPAQKLQQHTHEKPCNTSFSYLVASAIPSQDLYFGSFCPGGSIKQIQVKQNISVTLRTFAPSFQQEASRQGLTVSFIPYFKEEGVFTVTPDTKSKVYLRTPNWDRGLPSLTSVSWNISVPRDQVACLTFFKERSGVVCQTGRAFMIIQEQRTRAEEIFSLDEDVLPKPSFHHHSFWVNISNCSPTSGKQLDLLFSVTLTPRTVD
notes: CUB domain containing protein 1 (CDCP1), human; CTF ectodomain with the native cut site 3 (proteolysis after K369); CTF (aa 370-665); also called CTF (cut 3); CTF (aa 370-665); source: BirA-Expi293, cotransfected with the NTF plasmid, purified (protein A or Ni-NTA)
Consider B1, for which the binding result is given as “binds”.
